Results: patent publication US20190169289A1 (Scripps Research, published 2019)
Like-named read-outs stand apart in the source and are kept apart here.

Tests used:
Assay in all cases: cell-based or functional assay
[1] = target: T1, CD22 (UniProt P20273 20-847, limits assumed)
[2] = target: T1, CD22; remark: listed apart in the source
[3] = target: T1, CD22; remark: listed apart in the source
[4] = target: T1, CD22; remark: listed apart in the source
[5] = target: T1, CD22; remark: listed apart in the source
[6] = target: T1, CD22; remark: listed apart in the source

Binder	cytotoxicity at 0.06 pM [3]	cytotoxicity at 0.30 pM [3]	cytotoxicity at 1.52 pM [3]	cytotoxicity at 7.62 pM [3]	cytotoxicity at 190.48 pM [3]	cytotoxicity at 4762.00 pM [3]	EC50 of cytotoxicity [4] [pM]	EC50 of cytotoxicity [5] [pM]	cytotoxicity at 0.01 pM [6]	cytotoxicity at 0.1 pM [6]	cytotoxicity at 1 pM [6]	cytotoxicity at 10 pM [6]	cytotoxicity at 1000 pM [6]	cytotoxicity at 10000 pM [6]	also measured
anti-CD22 (clone hLL2) Fab CTBV3 switch (3 GGGGS linker) (Fab) light: DIQLTQSPSSLSASVGDRVTMSCKSSQSVLYSANHKNYLAWYQQKPGKAPKLLIYWASTRESGVPSRFSGSGSGTDFTFTISSLQPEDIATYYCHQYLSSWTFGGGTKLEIKRTVAAPSVFIFPPSDEQLKSGTASVVCLLNNFYPREAKVQWKVDNALQSGNSQESVTEQDSKDSTYSLSSTLTLSKADYEKHKVYACEVTHQGLSSPVTKSFNRGECGGGGSGGGGSGGGGSNYHLENEVARLKKL heavy: QVQLVQSGAEVKKPGSSVKVSCKASGYTFTSYWLHWVRQAPGQGLEWIGYINPRNDYTEYNQNFKDKATITADESTNTAYMELSSLRSEDTAFYFCARRDITTFYWGQGTTVTVSSARTKGPSVFPLAPSSKSTSGGTAALGCLVKDYFPEPVTVSWNSGALTSGVHTFPAVLQSSGLYSLSSVVTVPSSSLGTQTYICNVNHKPSNTKVDKKVEPKSCGGGGSGGGGSGGGGSNYHLENEVARLKKL															cytotoxicity at 0.01 pM [1]: 2.54; cytotoxicity at 0.1 pM [1]: 7.9; cytotoxicity at 10 pM [1]: 17; cytotoxicity at 100 pM [1]: 51.3; cytotoxicity at 1000 pM [1]: 45.3; cytotoxicity at 10000 pM [1]: 41.5; EC50 of cytotoxicity [2]: 14.9 pM
anti-CD22 (clone hLL2) IgG LCCT switch (antibody) light: DIQLTQSPSSLSASVGDRVTMSCKSSQSVLYSANHKNYLAWYQQKPGKAPKLLIYWASTRESGVPSRFSGSGSGTDFTFTISSLQPEDIATYYCHQYLSSWTFGGGTKLEIKRTVAAPSVFIFPPSDEQLKSGTASVVCLLNNFYPREAKVQWKVDNALQSGNSQESVTEQDSKDSTYSLSSTLTLSKADYEKHKVYACEVTHQGLSSPVTKSFNRGECGGGGSNYHLENEVARLKKL heavy: QVQLVQSGAEVKKPGSSVKVSCKASGYTFTSYWLHWVRQAPGQGLEWIGYINPRNDYTEYNQNFKDKATITADESTNTAYMELSSLRSEDTAFYFCARRDITTFYWGQGTTVTVSSARTKGPSVFPLAPSSKSTSGGTAALGCLVKDYFPEPVTVSWNSGALTSGVHTFPAVLQSSGLYSLSSVVTVPSSSLGTQTYICNVNHKPSNTKVDKKVEPKSCDKTHTCPPCPAPPVAGPSVFLFPPKPKDTLMISRTPEVTCVVVDVSHEDPEVKFNWYVDGVEVHNAKTKPREEQYNSTYRVVSVLTVLHQDWLNGKEYKCKVSNKGLPSSIEKTISKAKGQPREPQVYTLPPSRDELTKNQVSLTCLVKGFYPSDIAVEWESNGQPENNYKTTPPVLDSDGSFFLYSKLTVDKSRWQQGNVFSCSVMHEALHNHYTQKSLSLSPGK	-2.8	-7.88	-6.59	0.95	24.4	28.5	26.9								cytotoxicity at 38.10 pM [3]: 14.1; cytotoxicity at 952.40 pM [3]: 25.4
anti-CD22 (clone hLL2) Fab LCCT switch (Fab) light: DIQLTQSPSSLSASVGDRVTMSCKSSQSVLYSANHKNYLAWYQQKPGKAPKLLIYWASTRESGVPSRFSGSGSGTDFTFTISSLQPEDIATYYCHQYLSSWTFGGGTKLEIKRTVAAPSVFIFPPSDEQLKSGTASVVCLLNNFYPREAKVQWKVDNALQSGNSQESVTEQDSKDSTYSLSSTLTLSKADYEKHKVYACEVTHQGLSSPVTKSFNRGECGGGGSNYHLENEVARLKKL heavy: QVQLVQSGAEVKKPGSSVKVSCKASGYTFTSYWLHWVRQAPGQGLEWIGYINPRNDYTEYNQNFKDKATITADESTNTAYMELSSLRSEDTAFYFCARRDITTFYWGQGTTVTVSSARTKGPSVFPLAPSSKSTSGGTAALGCLVKDYFPEPVTVSWNSGALTSGVHTFPAVLQSSGLYSLSSVVTVPSSSLGTQTYICNVNHKPSNTKVDKKVEPKSC								132	-2.13	-0.84	-0.01	4.8	49.6	56.5	cytotoxicity at 100 pM [6]: 23.8
anti-CD22 (clone hLL2) IgG CTBV switch (antibody) light: DIQLTQSPSSLSASVGDRVTMSCKSSQSVLYSANHKNYLAWYQQKPGKAPKLLIYWASTRESGVPSRFSGSGSGTDFTFTISSLQPEDIATYYCHQYLSSWTFGGGTKLEIKRTVAAPSVFIFPPSDEQLKSGTASVVCLLNNFYPREAKVQWKVDNALQSGNSQESVTEQDSKDSTYSLSSTLTLSKADYEKHKVYACEVTHQGLSSPVTKSFNRGECGGGGSNYHLENEVARLKKL heavy: QVQLVQSGAEVKKPGSSVKVSCKASGYTFTSYWLHWVRQAPGQGLEWIGYINPRNDYTEYNQNFKDKATITADESTNTAYMELSSLRSEDTAFYFCARRDITTFYWGQGTTVTVSSARTKGPSVFPLAPSSKSTSGGTAALGCLVKDYFPEPVTVSWNSGALTSGVHTFPAVLQSSGLYSLSSVVTVPSSSLGTQTYICNVNHKPSNTKVDKKVEPKSCDKTHTCPPCPAPPVAGPSVFLFPPKPKDTLMISRTPEVTCVVVDVSHEDPEVKFNWYVDGVEVHNAKTKPREEQYNSTYRVVSVLTVLHQDWLNGKEYKCKVSNKGLPSSIEKTISKAKGQPREPQVYTLPPSRDELTKNQVSLTCLVKGFYPSDIAVEWESNGQPENNYKTTPPVLDSDGSFFLYSKLTVDKSRWQQGNVFSCSVMHEALHNHYTQKSLSLSPGKGGGGSNYHLENEVARLKKL	4.45	-3.82	5.34	7.92	29.8	38	34.7								cytotoxicity at 952.40 pM [3]: 28.6
anti-CD22 (clone hLL2) Fab HCCT switch (Fab, V domains shown) VH: QVQLVQSGAEVKKPGSSVKVSCKASGYTFTSYWLHWVRQAPGQGLEWIGYINPRNDYTEYNQNFKDKATITADESTNTAYMELSSLRSEDTAFYFCARRDITTFYWGQGTTVTVSS VL: DIQLTQSPSSLSASVGDRVTMSCKSSQSVLYSANHKNYLAWYQQKPGKAPKLLIYWASTRESGVPSRFSGSGSGTDFTFTISSLQPEDIATYYCHQYLSSWTFGGGTKLEIKR								1340	1.3	6.05	7.67	8.27	25	45.1	cytotoxicity at 100 pM [6]: 7.35
anti-CD22 (clone hLL2) Fab NTBV switch (Fab, V domains shown) VH: QVQLVQSGAEVKKPGSSVKVSCKASGYTFTSYWLHWVRQAPGQGLEWIGYINPRNDYTEYNQNFKDKATITADESTNTAYMELSSLRSEDTAFYFCARRDITTFYWGQGTTVTVSS VL: DIQLTQSPSSLSASVGDRVTMSCKSSQSVLYSANHKNYLAWYQQKPGKAPKLLIYWASTRESGVPSRFSGSGSGTDFTFTISSLQPEDIATYYCHQYLSSWTFGGGTKLEIKR								135	1.52	2.19	4.2	2.07	-2.07	1.5	
anti-CD22 (clone hLL2) IgG HCCT switch (antibody) light: DIQLTQSPSSLSASVGDRVTMSCKSSQSVLYSANHKNYLAWYQQKPGKAPKLLIYWASTRESGVPSRFSGSGSGTDFTFTISSLQPEDIATYYCHQYLSSWTFGGGTKLEIKRTVAAPSVFIFPPSDEQLKSGTASVVCLLNNFYPREAKVQWKVDNALQSGNSQESVTEQDSKDSTYSLSSTLTLSKADYEKHKVYACEVTHQGLSSPVTKSFNRGEC heavy: QVQLVQSGAEVKKPGSSVKVSCKASGYTFTSYWLHWVRQAPGQGLEWIGYINPRNDYTEYNQNFKDKATITADESTNTAYMELSSLRSEDTAFYFCARRDITTFYWGQGTTVTVSSARTKGPSVFPLAPSSKSTSGGTAALGCLVKDYFPEPVTVSWNSGALTSGVHTFPAVLQSSGLYSLSSVVTVPSSSLGTQTYICNVNHKPSNTKVDKKVEPKSCDKTHTCPPCPAPPVAGPSVFLFPPKPKDTLMISRTPEVTCVVVDVSHEDPEVKFNWYVDGVEVHNAKTKPREEQYNSTYRVVSVLTVLHQDWLNGKEYKCKVSNKGLPSSIEKTISKAKGQPREPQVYTLPPSRDELTKNQVSLTCLVKGFYPSDIAVEWESNGQPENNYKTTPPVLDSDGSFFLYSKLTVDKSRWQQGNVFSCSVMHEALHNHYTQKSLSLSPGKGGGGSNYHLENEVARLKKL	0.25	-1.05	-4.45	8.18	31.8	24.1	15.3								cytotoxicity at 38.10 pM [3]: 20.9
anti-CD22 (clone hLL2) Fab CTBV2 switch (2 GGGGS linker) (Fab) light: DIQLTQSPSSLSASVGDRVTMSCKSSQSVLYSANHKNYLAWYQQKPGKAPKLLIYWASTRESGVPSRFSGSGSGTDFTFTISSLQPEDIATYYCHQYLSSWTFGGGTKLEIKRTVAAPSVFIFPPSDEQLKSGTASVVCLLNNFYPREAKVQWKVDNALQSGNSQESVTEQDSKDSTYSLSSTLTLSKADYEKHKVYACEVTHQGLSSPVTKSFNRGECGGGGSGGGGSNYHLENEVARLKKL heavy: QVQLVQSGAEVKKPGSSVKVSCKASGYTFTSYWLHWVRQAPGQGLEWIGYINPRNDYTEYNQNFKDKATITADESTNTAYMELSSLRSEDTAFYFCARRDITTFYWGQGTTVTVSSARTKGPSVFPLAPSSKSTSGGTAALGCLVKDYFPEPVTVSWNSGALTSGVHTFPAVLQSSGLYSLSSVVTVPSSSLGTQTYICNVNHKPSNTKVDKKVEPKSCGGGGSGGGGSNYHLENEVARLKKL															cytotoxicity at 0.01 pM [1]: 7.08; cytotoxicity at 0.1 pM [1]: 2.9; cytotoxicity at 10 pM [1]: 22.1; cytotoxicity at 100 pM [1]: 45.8; cytotoxicity at 1000 pM [1]: 45.8; cytotoxicity at 10000 pM [1]: 46; EC50 of cytotoxicity [2]: 12.7 pM
